The text below walks through data of publication PMC8879858 (Nature plants, 2021).

The experiment addresses T1, cpSRP43-FL (Arabidopsis thaliana, UniProt O22265 57-373).
T1 sequence (looked up): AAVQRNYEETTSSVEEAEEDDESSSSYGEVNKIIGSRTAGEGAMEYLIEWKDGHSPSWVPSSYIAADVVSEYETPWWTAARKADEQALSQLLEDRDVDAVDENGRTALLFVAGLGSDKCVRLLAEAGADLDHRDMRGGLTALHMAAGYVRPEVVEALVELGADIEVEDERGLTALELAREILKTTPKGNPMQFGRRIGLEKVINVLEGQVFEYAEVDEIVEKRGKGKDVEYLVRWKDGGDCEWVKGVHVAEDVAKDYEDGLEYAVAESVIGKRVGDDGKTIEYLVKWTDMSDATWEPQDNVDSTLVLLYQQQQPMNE
In words: fluorescence polarisation. (In general: Fluorescence polarisation rises when a labelled molecule tumbles more slowly, as on binding a larger partner.)

Where no end group is shown, it is not given here. fluorescein = fluorescein label covalently attached to the C-terminal cysteine

Turning to QKQKAPPGTARRKRKAC(fluorescein) [fluorescein-labeled cpSRP54M peptide], the binding result is “binds”.
